These results are taken from the nanobody polyreactivity screen of Harvey et al. (2022).

This data set in a line: yeast display, Sf9 membrane polyspecificity reagent, FACS + sequencing; frameworks hold sequencing errors. An outline of the steps: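 After 36–48 hours of galactose induction, yeast (Saccharomyces cerevisiae BJ5465) displaying a synthetic nanobody library were stained at 4 °C for 1 hour with 10% biotinylated, detergent-solubilized Sf9 membrane reagent. Streptavidin microbeads enriched the stained cells before FACS sorting into low and high (top ~1%) gates on anti-HA and streptavidin fluorescence. Each clone's polyreactivity label reflects its gate of origin.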
As for “QVQLVESGGGLVQAGGSLRLSCAASGSTFYRYAMGWYRQAPGKERELVAAISSDGTTYYADSVKGRFTISRDNAKNTVYLQMISLKPEDTAVYDCAAEGIRRSQRFNYWGQGTQVTVSS”, the “polyreactivity (PSR sort gate)” value was “high polyreactivity”.

As for “QVQLVESGGGLVQAGGSLRLSCAASGSTFYRYAMGWYRQAPGKERELVAAISYRGGSTYYADSVKGRFTISRDNAKNTVYLQMNSLKPEDTAVYYCNKRSTRRYDYWGQGTQVTVSS”, the “polyreactivity (PSR sort gate)” value was “high polyreactivity”.

With “QVQLVESGGGLVQAGGSLRLSCAASGSTFYRYAMGWYRQAPGKERELVAVITSGGSTNYADSVKGRFTISRDNAKNTVYLQMNSLKPEDTAVYYCAKEDGYSQLKTTFDEAGYGSWGQGTQVTVSS”, the “polyreactivity (PSR sort gate)” value is listed as “low polyreactivity”.

As for “QVQLVESGGGLVQAGGSLRLSCAASGSTFYRYTMGWYRQAPGKERELVAAITGSGDSTYYADSVKGRFTISRDNAKNTVYLQMNSLKPEDTAVYYCAAANSFYYIATGEYDYWGQGTQVNVSS”, the “polyreactivity (PSR sort gate)” value is on record as “high polyreactivity”.

“QVQLVESGGGLVQAGGSLRLSCAASGSTFYSNAMGWYRQAPGKERELVAAINYSGGGTYYADSVKGRFTISRDNAKNTVYLQMNSLKPEDTAVYYCAADGSYVHWEYGYWGQGTQVTVSS”: the “polyreactivity (PSR sort gate)” value was “low polyreactivity”.

Regarding “QVQLVESGGGLVQAGGSLRLSCAASGSTFYSNAMGWYRQAPGKERELVAAISRRGSSTYYADSVKGRFTISRDNAKNTVYLQMNSLKPEDTAVYYCNAVGTGGYSSEYGYWGQGTQVTVSS”, the “polyreactivity (PSR sort gate)” value was “high polyreactivity”.

On to “QVQLVESGGGLVQAGGSLRLSCAASGSTFYSNAMGWYRQAPGKERELVAAITDGDRTNYADSVKGRFTISRDNAKNTVYLQMNSLKPEDTAVYYCAADYAVYLGVSPDYGYWGQGTQVTVSS”, for which the “polyreactivity (PSR sort gate)” value is “low polyreactivity”.

With “QVQLVESGGGLVQAGGSLRLSCAASGSTFYSYAMGWYRQAHGQERELVAAISYSGGSTYYADSVKGRFTISRDNAKNTVYLQMNSLKPADTAVYYCNARAVYPAGYAYDYWGQGTQVTVSS”, the “polyreactivity (PSR sort gate)” value is “high polyreactivity”.

As to “QVQLVESGGGLVQAGGSLRLSCAASGSTFYSYAMGWYRQAPGKEREFVAVISWSGGRTRYADSVKGRFTISRDNAKNTVYLQMNSLKPEDTAVYYCNARKWGYSPHRKGDRHFEYWGQGTQVTVSS”, the “polyreactivity (PSR sort gate)” value is reported as “low polyreactivity”.

Consider “QVQLVESGGGLVQAGGSLRLSCAASGSTFYSYAMGWYRQAPGKERELVADITDSGGSTYYADSVKGRFTISRDNAKNTVYLQMNSLKPEDTALFYCNAAYYIWYNKVSSTYGIHGMDYWGQGTQVTVSS”, for which the “polyreactivity (PSR sort gate)” value is reported as “high polyreactivity”.

With “QVQLVESGGGLVQAGGSLRLSCAASGSTFYSYSMGWNRQAPGKERELVAAITKSGGSTYYADSVKGRFTISRDNAKNTVYLQMNSLKPEDTAVYYCAARQGVRMYWGQVTQVTVSS”, the “polyreactivity (PSR sort gate)” value is “high polyreactivity”.

With “QVQLVESGGGLVQAGGSLRLSCAASGSTFYTNAMGWSRQAPGKERELVASIDRGGGSTYYAESVKGRFTISRDNAKNTVYLQMNSLKPEDTAVYYCAASFDGRYWGYYYWGQGTKVTVSS”, the “polyreactivity (PSR sort gate)” value is listed as “low polyreactivity”.

Turning to “QVQLVESGGGLVQAGGSLRLSCAASGSTFYTNAMGWSRQAPGTERELVAAISGSGGSTYYADSVKGRFTISRDNAKNTVYVQMNSLKPEDTAVYYCAARSRYYYTRFDYWGQGTQVTVSS”, the “polyreactivity (PSR sort gate)” value is on record as “low polyreactivity”.

Take “QVQLVESGGGLVQAGGSLRLSCAASGSTFYTNAMGWYIQAPGKERELVAAISRGGITYYADSVKGRFTISRDNAKNTVYLQMNSLKPEDTAVYYCNTQIVTEYDYWGQDTQVTVSS”: the “polyreactivity (PSR sort gate)” value is “low polyreactivity”.

Consider “QVQLVESGGGLVQAGGSLRLSCAASGSTFYTNAMGWYRPAPGKERELVAAISASVGSTYYADSVKGRFTISRDNAKNTVYLQMNSLKPEDTAVYYCAADVWASRRYDYWGQGTQVTVSS”, for which the “polyreactivity (PSR sort gate)” value is “low polyreactivity”.

For the sequence “QVQLVESGGGLVQAGGSLRLSCAASGSTFYTNAMGWYRQAPGKERELVAAISASVGSTYYADSVKGRFTISRDNAKNTVYLQMNSLKPEDTAVYNCAADVWASRRYDYWGQGTQVTLSS”, the “polyreactivity (PSR sort gate)” value is reported as “low polyreactivity”.

Regarding “QVQLVESGGGLVQAGGSLRLSCAASGSTFYTNAMGWYRQAPGKERELVASISSGGRTYYADSVKGRFTISRDNAKNTVYLQMNSLKPEDTAVYYCAKRAVLARGDYWGQGTQVTVSS”, the “polyreactivity (PSR sort gate)” value is listed as “low polyreactivity”.

For “QVQLVESGGGLVQAGGSLRLSCAASGSTFYTNAMGWYRQAPGKERELVASITDGGDSTHYADSVKGRFTISRDNAKNTVYLQMNSLKPEDTAVYYCAVDYQYFQEYDSWGQGTQVTVSS”, the “polyreactivity (PSR sort gate)” value is recorded as “low polyreactivity”.

Regarding “QVQLVESGGGLVQAGGSLRLSCAASGSTFYTNAMGWYRQAPGKERELVAVITSSGVRTYYADSVKGRFTISRDNAKKTVYFQMNSLKPEDTAVYYCAAEARVGDHFQILDYWGQGTQVTVSS”, the “polyreactivity (PSR sort gate)” value is “high polyreactivity”.

With “QVQLVESGGGLVQAGGSLRLSCAASGSTFYTNAMGWYRQAPGQERELVAAISASVGSTYYADSVKGRFTISRDYAKNSVYLQMNSLKPEDTAVYYCAADVWASRRYDYWGQGTQVTVSS”, the “polyreactivity (PSR sort gate)” value is “low polyreactivity”.

As to “QVQLVESGGGLVQAGGSLRLSCAASGSTFYTYAMGWYRKAPGKERELDAAISWSGGSTYYADSVKGRFTISRDNAKNTVYLQMNSLKPEDTAVYYCAADRPYAGRYWKGYHSALYDYWGQGTQVTVSS”, the “polyreactivity (PSR sort gate)” value is on record as “low polyreactivity”.

Take “QVQLVESGGGLVQAGGSLRLSCAASGSTFYTYAMGWYRQAPGKERELVAAISNRGGSTRYADSVKGRFTISRDNAKNTVYLQMNSLKPEDTAVYYCAARVTQTGYYWGQGTQVTVSS”: the “polyreactivity (PSR sort gate)” value is recorded as “high polyreactivity”.

With “QVQLVESGGGLVQAGGSLRLSCAASGSTFYTYAMGWYRQAPGKERELVAAISWSGGSTYYADSVKGRFTISRDIAKNTVYLQMNSLKPEDTAVYYCAKKQVTTDVSSETFVLEMDYWGQGTQVTVSS”, the “polyreactivity (PSR sort gate)” value is listed as “low polyreactivity”.

On to “QVQLVESGGGLVQAGGSLRLSCAASGSTFYTYAMGWYRQATGKERELVAAISWSGGSTYYADSVKGRFTISRDNAKNTVYLQMNSLKPEDPAVYYCAADRPYAGRYWKGYHSALYDYWGQGSQVTVSS”, for which the “polyreactivity (PSR sort gate)” value is “low polyreactivity”.

As to “QVQLVESGGGLVQAGGSLRLSCAASGSTFYTYTMGWYRQAPGKERELVAAISTRGGSTYYADSVKGRFTISRDNAKNTVYLQMNCLKPEDTAVYYCAAVYRRGSGYDYWGQGNQVTVSS”, the “polyreactivity (PSR sort gate)” value was “high polyreactivity”.

Regarding “QVQLVESGGGLVQAGGSLRLSCAASGSTFYVNAMGWYRQAPGKERELVAAISSGGSTYYADSVKGRFTISRDNAKNTVYLQMNSLKPEDTAVYYCAAASPWGSDYDYWGQGTQVTVSS”, the “polyreactivity (PSR sort gate)” value is reported as “low polyreactivity”.

Take “QVQLVESGGGLVQAGGSLRLSCAASGSTFYVNDMGWYRQAPGKERELVAAITWGVGDTYYADSVKGRFTISRDNAKNTVYLQMNSLKPEDTAVYYCAADTSYYYAYTQMEYWGQGTQVTVSS”: the “polyreactivity (PSR sort gate)” value was “low polyreactivity”.

Consider “QVQLVESGGGLVQAGGSLRLSCAASGSTFYVNTMGGSRQAPGKERELVAAISGSGGSTYYADSVKGRFTISRDNAKNTVYLQMNCLKPEETAVYYCAAYGWRLWYRFNYWGQGTQVTVSS”, for which the “polyreactivity (PSR sort gate)” value is reported as “high polyreactivity”.

“QVQLVESGGGLVQAGGSLRLSCAASGSTFYVNTMGWYRQAPGKERELVAAINWRGGSTYYADSVKWRFTISRDNAKNTVYLQMNSLKPEDTAVYYCAAYGFYRYVTAYIYDMDYWGQGTQVSVSS”: the “polyreactivity (PSR sort gate)” value is “low polyreactivity”.

“QVQLVESGGGLVQAGGSLRLSCAASGSTFYVYAMGWYRQAPRKERELVAAIDGSTGSTYYADSVKGRFTISRDNAKNTVYLQMNSLKPEDTAVYYCNADYYYEVDSWGQGTQVTVSS”: the “polyreactivity (PSR sort gate)” value was “low polyreactivity”.

On to “QVQLVESGGGLVQAGGSLRLSCAASGSTFYWYTMGWYRQAPGKERELVATITSSGGRTYYADSVKGRFTISRDNAKNTVYLQMNSLKPEDTAVYYCAAYRRNSRWELDYWGQGTQVTVSS”, for which the “polyreactivity (PSR sort gate)” value is “high polyreactivity”.

“QVQLVESGGGLVQAGGSLRLSCAASGSTFYYNAMGWYRQAPGKEREFVAAISSRGGSTYYADSVKGRFTISRDNAKTTVYLQMNSLKPEDTAVYYCAAKYRHRYDWGQGTQVTVSS”: the “polyreactivity (PSR sort gate)” value is given as “high polyreactivity”.

For the sequence “QVQLVESGGGLVQAGGSLRLSCAASGSTFYYNAMGWYRQAPGKEREFVAGITSSGAGTYYADSVKGRFTISRDNAKNTVYLQMNSLKPEDTAVYYCAAVYRWEGRTYRYGYWGQGTQVTVSS”, the “polyreactivity (PSR sort gate)” value was “high polyreactivity”.

As for “QVQLVESGGGLVQAGGSLRLSCAASGSTFYYNAMGWYRQAPGKERELDARISRSGGSTYADSVKGRFTISRDNAKNTVYLQMNSLKPEDTAVYYCNADAYGTPEFTSYAVRYDYWGQGTQVTVSS”, the “polyreactivity (PSR sort gate)” value is “low polyreactivity”.

Consider “QVQLVESGGGLVQAGGSLRLSCAASGSTFYYNAMGWYRQAPGKERELVAAIRTSGGRTYYADSVKGRFTISRDNAKNTVYLQMNSLKPEDTAVYYCAADGTAVHYTYDYWGQGTQVTVSS”, for which the “polyreactivity (PSR sort gate)” value is “low polyreactivity”.

On to “QVQLVESGGGLVQAGGSLRLSCAASGSTFYYNAMGWYRQAPGKERELVAAITWGGGSTYYADSVKGRFTISRDNAKNTVYLQMNSLKPEDTAVYYCNAEDYVWYYYYYDIYDYWGQGTQVTVSS”, for which the “polyreactivity (PSR sort gate)” value is “high polyreactivity”.

Turning to “QVQLVESGGGLVQAGGSLRLSCAASGSTFYYNAMGWYRQAPGKERELVATISGGGTTYYADSVKGRFTISRDNAKNSVYLQMISLKPEDTAVYYCATDWHIEYLYRKVHGRKHDYWGQGTQVTVSS”, the “polyreactivity (PSR sort gate)” value is “low polyreactivity”.

Turning to “QVQLVESGGGLVQAGGSLRLSCAASGSTFYYNDMGWYRQAPGKERELVAAIRTSGSTNYADSVKGRFTISRDNAKNTVYLQMNSLKPEDTAVYYCNAVVRHWFQGWYGRGDDYWGQGTQVTVSS”, the “polyreactivity (PSR sort gate)” value is “low polyreactivity”.

With “QVQLVESGGGLVQAGGSLRLSCAASGSTFYYNVMGWYRQAPGKERELVAAITLSGGSTYADSVKGRFTISRDNAKNTVYLQMNSLKPEDTAVYYCAKKGRYGRWGYKFDYWGQGTQVTVSS”, the “polyreactivity (PSR sort gate)” value is listed as “low polyreactivity”.

For “QVQLVESGGGLVQAGGSLRLSCAASGSTFYYYAMGWYRQAPGKERELVAAITNVTSTYYADSVKGRFTISRDNEKNTVYLMMNSLKPEDTAVYYCAAPDHCSEVTYDYWGQGTQVCVSS”, the “polyreactivity (PSR sort gate)” value was “low polyreactivity”.
